Consider four proteins from PMC7785629.

Substrate in data set [1]: Nc1ncnc2c1ncn2[C@@H]1O[C@H](COP(=O)(O)OP(=O)(O)OP(=O)(O)O)[C@@H](O)[C@H]1O
The data set can be described thus: purified protein. The data set is classed as biochemical, Homo sapiens. As to conditions: Mg2+ nucleotide binding domain.

Substrate in data set [2]: Nc1ncnc2c1ncn2[C@@H]1O[C@H](COP(=O)(O)OP(=O)(O)OP(=O)(O)O)[C@@H](O)[C@H]1O
The data set can be described thus: Michaelis-Menten ATPase kinetics. The data set is classed as biochemical, Homo sapiens. As to conditions: Mg2+ nucleotide binding domain.

B1: ABCB7 (Homo sapiens) (protein)
chain: HSAILIRPLVSVSGSGPQWRPHQLGALGTARAYQIPESLKSITWQRLGKGNSGQFLDAAKALQVWPLIEKRTCWHGHAGGGLHTDPKEGLKDVDTRKIIKAMLSYVWPKDRPDLRARVAISLGFLGGAKAMNIVVPFMFKYAVDSLNQMSGNMLNLSDAPNTVATMATAVLIGYGVSRAGAAFFNEVRNAVFGKVAQNSIRRIAKNVFLHLHNLDLGFHLSRQTGALSKAIDRGTRGISFVLSALVFNLLPIMFEVMLVSGVLYYKCGAQFALVTLGTLGTYTAFTVAVTRWRTRFRIEMNKADNDAGNAAIDSLLNYETVKYFNNERYEAQRYDGFLKTYETASLKSTSTLAMLNFGQSAIFSVGLTAIMVLASQGIVAGTLTVGDLVMVNGLLFQLSLPLNFLGTVYRETRQALIDMNTLFTLLKVDTQIKDKVMASPLQITPQTATVAFDNVHFEYIEGQKVLSGISFEVPAGKKVAIVGGSGSGKSTIVRLLFRFYEPQKGSIYLAGQNIQDVSLESLRRAVGVVPQDAVLFHNTIYYNLLYGNISASPEEVYAVAKLAGLHDAILRMPHGYDTQVGERGLKLSGGEKQRVAIARAILKDPPVILYDEATSSLDSITEETILGAMKDVVKHRTSIFIAHRLSTVVDADEIIVLDQGKVAERGTHHGLLANPHSIYSEMWHTQSSRVQNHDNPKWEAKKENISKEEERKKLQEEIVNSVKGCGNCSC
B1: in data set [1], the Km (commonly the concentration of substrate that gives half-maximal velocity) stood at 5300 ± 1000 µM and the Vmax – broadly, the top rate of the reaction or transport when substrate is in excess – worked out at 0.58 µM/min.

B2: ABCB7 (Homo sapiens; E433D) (protein)
chain: HSAILIRPLVSVSGSGPQWRPHQLGALGTARAYQIPESLKSITWQRLGKGNSGQFLDAAKALQVWPLIEKRTCWHGHAGGGLHTDPKEGLKDVDTRKIIKAMLSYVWPKDRPDLRARVAISLGFLGGAKAMNIVVPFMFKYAVDSLNQMSGNMLNLSDAPNTVATMATAVLIGYGVSRAGAAFFNEVRNAVFGKVAQNSIRRIAKNVFLHLHNLDLGFHLSRQTGALSKAIDRGTRGISFVLSALVFNLLPIMFEVMLVSGVLYYKCGAQFALVTLGTLGTYTAFTVAVTRWRTRFRIEMNKADNDAGNAAIDSLLNYETVKYFNNERYEAQRYDGFLKTYETASLKSTSTLAMLNFGQSAIFSVGLTAIMVLASQGIVAGTLTVGDLVMVNGLLFQLSLPLNFLGTVYRDTRQALIDMNTLFTLLKVDTQIKDKVMASPLQITPQTATVAFDNVHFEYIEGQKVLSGISFEVPAGKKVAIVGGSGSGKSTIVRLLFRFYEPQKGSIYLAGQNIQDVSLESLRRAVGVVPQDAVLFHNTIYYNLLYGNISASPEEVYAVAKLAGLHDAILRMPHGYDTQVGERGLKLSGGEKQRVAIARAILKDPPVILYDEATSSLDSITEETILGAMKDVVKHRTSIFIAHRLSTVVDADEIIVLDQGKVAERGTHHGLLANPHSIYSEMWHTQSSRVQNHDNPKWEAKKENISKEEERKKLQEEIVNSVKGCGNCSC
For B2, in data set [2], the Km came out at 850 ± 280 µM and the Vmax turned out to be 0.35 µM/min.

B3: ABCB7 (Homo sapiens; E433Q) (protein)
chain: HSAILIRPLVSVSGSGPQWRPHQLGALGTARAYQIPESLKSITWQRLGKGNSGQFLDAAKALQVWPLIEKRTCWHGHAGGGLHTDPKEGLKDVDTRKIIKAMLSYVWPKDRPDLRARVAISLGFLGGAKAMNIVVPFMFKYAVDSLNQMSGNMLNLSDAPNTVATMATAVLIGYGVSRAGAAFFNEVRNAVFGKVAQNSIRRIAKNVFLHLHNLDLGFHLSRQTGALSKAIDRGTRGISFVLSALVFNLLPIMFEVMLVSGVLYYKCGAQFALVTLGTLGTYTAFTVAVTRWRTRFRIEMNKADNDAGNAAIDSLLNYETVKYFNNERYEAQRYDGFLKTYETASLKSTSTLAMLNFGQSAIFSVGLTAIMVLASQGIVAGTLTVGDLVMVNGLLFQLSLPLNFLGTVYRQTRQALIDMNTLFTLLKVDTQIKDKVMASPLQITPQTATVAFDNVHFEYIEGQKVLSGISFEVPAGKKVAIVGGSGSGKSTIVRLLFRFYEPQKGSIYLAGQNIQDVSLESLRRAVGVVPQDAVLFHNTIYYNLLYGNISASPEEVYAVAKLAGLHDAILRMPHGYDTQVGERGLKLSGGEKQRVAIARAILKDPPVILYDEATSSLDSITEETILGAMKDVVKHRTSIFIAHRLSTVVDADEIIVLDQGKVAERGTHHGLLANPHSIYSEMWHTQSSRVQNHDNPKWEAKKENISKEEERKKLQEEIVNSVKGCGNCSC
As for B3, in data set [2], the Km turned out to be 710 ± 300 µM and the Vmax turned out to be 0.28 µM/min.

B4: ABCB7 (Homo sapiens; E433K) (protein)
chain: HSAILIRPLVSVSGSGPQWRPHQLGALGTARAYQIPESLKSITWQRLGKGNSGQFLDAAKALQVWPLIEKRTCWHGHAGGGLHTDPKEGLKDVDTRKIIKAMLSYVWPKDRPDLRARVAISLGFLGGAKAMNIVVPFMFKYAVDSLNQMSGNMLNLSDAPNTVATMATAVLIGYGVSRAGAAFFNEVRNAVFGKVAQNSIRRIAKNVFLHLHNLDLGFHLSRQTGALSKAIDRGTRGISFVLSALVFNLLPIMFEVMLVSGVLYYKCGAQFALVTLGTLGTYTAFTVAVTRWRTRFRIEMNKADNDAGNAAIDSLLNYETVKYFNNERYEAQRYDGFLKTYETASLKSTSTLAMLNFGQSAIFSVGLTAIMVLASQGIVAGTLTVGDLVMVNGLLFQLSLPLNFLGTVYRKTRQALIDMNTLFTLLKVDTQIKDKVMASPLQITPQTATVAFDNVHFEYIEGQKVLSGISFEVPAGKKVAIVGGSGSGKSTIVRLLFRFYEPQKGSIYLAGQNIQDVSLESLRRAVGVVPQDAVLFHNTIYYNLLYGNISASPEEVYAVAKLAGLHDAILRMPHGYDTQVGERGLKLSGGEKQRVAIARAILKDPPVILYDEATSSLDSITEETILGAMKDVVKHRTSIFIAHRLSTVVDADEIIVLDQGKVAERGTHHGLLANPHSIYSEMWHTQSSRVQNHDNPKWEAKKENISKEEERKKLQEEIVNSVKGCGNCSC
With B4, in data set [2], the Km is 490 ± 110 µM and the Vmax turned out to be 0.37 µM/min.
